The record followed here is patent US20200347130A1 (JIANGSU HENGRUI MEDICINE, published 2020).

For assay [1], the target named is T1, CD96 extracellular region with His tag (CD96-His) (human, UniProt P40200 22-519).
T1 construct: also called CD96-ECD-His; Bio-CD96-His (biotin-labelled form)
T1 sequence: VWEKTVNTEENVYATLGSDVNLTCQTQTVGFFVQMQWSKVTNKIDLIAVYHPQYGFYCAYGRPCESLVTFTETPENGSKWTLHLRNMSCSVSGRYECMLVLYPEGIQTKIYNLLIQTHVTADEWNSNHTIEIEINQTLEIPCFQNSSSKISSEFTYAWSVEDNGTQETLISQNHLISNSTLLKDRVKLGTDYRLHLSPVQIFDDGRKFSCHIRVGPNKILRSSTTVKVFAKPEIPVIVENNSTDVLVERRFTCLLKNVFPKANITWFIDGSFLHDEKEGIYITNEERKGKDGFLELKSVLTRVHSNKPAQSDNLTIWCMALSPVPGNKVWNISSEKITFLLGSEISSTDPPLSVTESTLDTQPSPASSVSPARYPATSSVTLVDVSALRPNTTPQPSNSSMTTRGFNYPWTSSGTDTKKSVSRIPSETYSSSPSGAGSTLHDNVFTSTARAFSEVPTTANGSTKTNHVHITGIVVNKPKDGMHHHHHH
The experiment in a line: blocking cell ELISA: antibody premixed with CD96 antigen (0.5 ug/mL), binding to fixed CD155-CHO cells. Here is the method: CD155-CHO cells (constructed by Shanghai Hengrui) were seeded in 96-well culture plates at a density of 9×10⁴/100 μL/well and cultured overnight. After aspirating the supernatant, the plate was washed once with PBS, 100 μl/well of immunostaining fixation solution (Biyuntian, Cat No. P0098) was added and fixed for one hour at room temperature, and the plate was washed three times with PBS. After discarding the liquid, 250 μl/well of 5% skim milk (BD, Cat No. 232100) blocking solution diluted with PBS was added, and the plate was blocked in an incubator at 37° C. for 2.5 hours. After blocking, the blocking solution was discarded, subsequently, the plate was washed 4 times with PBST buffer (pH 7.4 PBS containing 0.05% tween-20). 50 μl/well of antigen-antibody pre-incubation solution (gradient concentrations of the hybridoma antibody to be tested and CD96-Fc at a final concentration of 0.5 μg/mL were premixed at 37° C. for 30 minutes, or gradient concentrations of humanized antibody samples and Bio-CD96-His at a final concentration of 0.5 μg/mL were premixed at 37° C. for 30 minutes) (Biotin-labeled kit, Dongren Chemical, Cat No. LK03) was added, and the plate was incubated in an incubator at 37° C. for 2 hours. After incubation, the reaction solution in the microtiter plate was discarded, the plate was washed 4 times with PBST, and 50 μl/well of HRP-labeled goat anti-human secondary antibody (Jackson Immuno Research, Cat No. 109-035-003) diluted with sample dilution or HRP-labeled streptavidin diluted with sample dilution (Sigma, Cat No. 52438) was added, followed by incubating at 37° C. for 1 hour. After washing the plate 4 times with PBST, 50 μl/well of TMB chromogenic substrate (KPL, Cat No. 52-00-03) was added, the plate was incubated at room temperature for 10-20 minutes, followed by adding 50 μl/well of 1M H₂SO₄ to stop the reaction. The absorption value was read at 450 nm with a NOVOStar microplate reader, and the EC50 value of the effect of CD96 antibody on blocking the binding between the antigens and CD155-CHO cells was calculated (see FIG. 2 and Table 16).
A general note: In an ELISA, binding on a coated surface is turned into a signal by an enzyme label.

Assay [2] addresses T2, Biotinylated CD96 antigen (human, UniProt P40200-2 22-503, limits assumed, biotinylated).
T2 sequence (looked up): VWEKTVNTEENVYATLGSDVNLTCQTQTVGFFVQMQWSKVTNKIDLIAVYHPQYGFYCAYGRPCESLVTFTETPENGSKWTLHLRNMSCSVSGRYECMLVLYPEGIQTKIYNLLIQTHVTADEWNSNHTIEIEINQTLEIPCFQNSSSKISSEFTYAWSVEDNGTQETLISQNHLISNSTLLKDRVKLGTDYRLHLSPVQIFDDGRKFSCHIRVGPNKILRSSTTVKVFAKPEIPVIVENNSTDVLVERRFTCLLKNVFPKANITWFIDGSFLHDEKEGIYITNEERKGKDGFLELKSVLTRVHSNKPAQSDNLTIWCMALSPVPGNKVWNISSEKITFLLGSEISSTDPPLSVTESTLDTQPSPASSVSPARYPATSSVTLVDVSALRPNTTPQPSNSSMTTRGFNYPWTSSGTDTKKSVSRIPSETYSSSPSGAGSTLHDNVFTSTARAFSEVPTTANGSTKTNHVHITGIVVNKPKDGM
The experiment in a line: competition ELISA: antibody B pre-incubated with biotinylated CD96 antigen, added to a plate coated with antibody A, HRP-streptavidin, OD450; competitor: coated ch1720. How it is done: (§1) Competitive assays of different antibodies binding to CD96 protein were used to classify binding epitopes of the antibodies. The specific experimental methods are as follows:
(§2) Antibody A was diluted to a concentration of 2 μg/ml with PBS buffer (Shanghai Yuanpei Biotechnology Co., Ltd. Cat No. B320), pH 7.4, added to a 96-well microtiter plate (Corning, Cat No. CLS3590-100EA) at a volume of 50 μl/well, and coated at 4° C. overnight. After discarding the liquid, 250 μl/well of 5% skim milk (BD skim milk, Cat No. 232100) blocking solution diluted with PBS was added, and the plate was incubated at 37° C. for 3 hours. After blocking, the blocking solution was discarded, and the plate was washed 5 times with PBST buffer (pH 7.4 PBS containing 0.05% tween-20) and stored for later use. Antibody B was diluted to 40 μg/ml and 8 μg/ml with 1% BSA, and Biotinylated CD96 antigen was simultaneously diluted to 4 μg/mL. Subsequently, antibody B and antigen were mixed in a 1:1 volume ratio, pre-incubated at 37° C. for 45 minutes, added into the enzyme plate coated with antibody A, thus incubating the plate in an incubator at 37° C. for 1.5 hours. After incubation, the plate was washed for 5 times with PBST, and 50 μl/well of HRP-labeled streptavidin (Sigma, Cat No. 52438) diluted with sample dilution was added, followed by incubating the plate at 37° C. for 1 hour. After washing the plate 5 times with PBST, 50 μl/well of TMB chromogenic substrate (KPL, Cat No. 52-00-03) was added for color development, followed by adding 50 μl/well of 1M H₂SO₄ to stop the reaction. The absorption value was read at 450 nm with a NOVOStar microplate reader, and the OD value was used to determine whether A and B CD96 antibodies compete with each other. Antibodies that compete with each other fall into the same class of antibodies, otherwise belong to different classes of antibodies (see FIG. 3 and Table 18).

Assay [3] concerns the target T2, Biotinylated CD96 antigen. The experiment in a line: competition ELISA: antibody B pre-incubated with biotinylated CD96 antigen, added to a plate coated with antibody A, HRP-streptavidin, OD450; competitor: coated h1721-003. Here is the method:
as §1, §2

B1: ch1720 (antibody, human IgG4 S228P, kappa, V domains shown)
VH: EFQLQQSGPELVKPGASVKISCKASAYSLTDYNMNWVKQSNGKSLEWIGVINPSYGISSYNQKFKGKATLTVDQSSSTAYMHLNSLTSEDSAVYYCARQLRLPGYFDVWGTGTTVTVSS
VL: DIKMTQSPSSKNASLGERVTITCKASQDINSYLNWFQQKPGKSPKTLIYRASRLVDGVPSRFSGSGSGQDYSLTISSLEYEDMGIYYCLKYDEFPYTFGGGTKLEIKR
notes: also called chimeric antibody corresponding to m1720
Broadly, the IC50 is the concentration at which inhibition is half-maximal. B1 came in with an IC50 in assay [1] of 149 pM.

B2: ch1718 (antibody, human IgG4 S228P, kappa, V domains shown)
VH: EFQLQQSGPELVKPGASVKISCKASAYSITDYNMNWVKQSNGKSLEWIGVINPSYGITDYNQNFKDKATLTVDQSSSTAYMQLNSLTSEDSAVYYCAIQLRLPGYFDVWGTGTTVIVSS
VL: DIKMTQSPSSMYASLGERVTITCKASQDINNYLNWFQQKPGKSPKTLIYRANRLVDGVPSRFSGSGSGQDYSLTISSLEYEDMGIYYCLKYDEFPYTFGGGTKVEIKR
notes: also called chimeric antibody corresponding to m1718
B2 showed an IC50 in assay [1] of 96 pM.

B3: h1719-010 (antibody, V domains shown)
VH: EVTLKESGPVLVKPTETLTLTCTVSGFSLSSYGVSWVRQPPGKGLEWLGVIWGDGNTNYHSVLISRLTISKDTSKSQVVLTLTNMDPVDTATYYCAKQNYYGSRYGYPIDYWGQGTTVTVSS
VL: DIQMTQSPSSVSASVGDRVTITCKATQDVGTAVAWYQQKPGKAPKLLIYWASTRHTGVPSRFSGSGSGTDFTLTISSLQPEDFATYYCQQYGSSVLTFGGGTKVEIK
notes: Only variable regions are tied to this name
For B3, the figures for the “IC50 (read off the curve)” value in assay [2] and in assay [3] were approximately 500 pM and approximately 400 pM, respectively.

B4: h1721-003 (antibody, V domains shown)
VH: EVTLKESGPVLVKPTETLTLTCTVSGFSLSSYGVNWIRQPPGKALEWLGVIWGDGSTNYHSALISRLTISKDTSKSQVVLTLTNMDPVDTATYYCAKNYFYGSRYGYAMDSWGQGTTVTVSS
VL: DIQMTQSPSSLSASVGDRVTITCRASENIYSSLAWYQQKPGKAPKLLIYNAKTLIEGVPSRFSGSGSGTDFTLTISSLQPEDFATYYCQHHYGTPYTFGGGTKVEIK
notes: Only variable regions are tied to this name; also called M721-003
Turning to B4, the “IC50 (read off the curve)” value in assay [2] and in assay [3] was approximately 400 pM throughout.

B5: h1718-012 (antibody, V domains shown)
VH: EVQLVQSGAEVKKPGASVKVSCKASGYTITDYNMNWVRQAPGQRLEWIGVINPSYGITDYNQNFKDRVTITVDTSASTAYMELSSLRSEDTAVYYCAIQLRLPGYFDVWGQGTTVTVSS
VL: DIQMTQSPSSLSASVGDRVTITCKASQDINQYLNWFQQKPGKAPKTLIYRANRLVDGVPSRFSGSGSGQDYTLTISSLQPEDFATYYCLKYDEFPYTFGGGTKVEIK
notes: as for B3
Consider B5, for which the “IC50 (read off the curve)” value is approximately 500 pM in assay [2] and approximately 400 pM in assay [3].

B6: ch1719 (antibody, human IgG4 S228P, kappa, V domains shown)
VH: QVQLKESGPGLVAPSQSLSITCTVSGFSLISYGVSWVRQPPGKGLEWLGVIWGDGNTNYHSVLISRLSIRKDDSKSQVFLKLNSLQTDDTATYYCAKNNYYGSRYGYPMDYWGQGTSVTVSS
VL: DIVMTQSHKFMSTSVGDRVSITCKATQDVGTAVAWYQQKPGHSPKLLIYWASTRHTGVPERFTGSGSGTDFTLTIDNVQSEDLADYFCQQYGSSVLTFGAGTKVELRR
notes: also called chimeric antibody corresponding to m1719
For B6, in assay [1], the IC50 stood at 137 pM.

B7: ch1721 (antibody, human IgG4 S228P, kappa, V domains shown)
VH: QVQLKESGPGLVAPSQSLSITCTVSGFSLISYGVNWVRQPPGKGLEWLGVIWGDGSTNYHSALISRLSISKDDSKSQVFLNLNSLQTDDTATYYCAKNYFYGSRYGYAMDSWGQGISVTVSS
VL: DIQMTQSPASLSAAVGETVTITCRASENIYSSLAWYQQKQGKSPQLLVYNAKTLIETVASRFSGSGSGTQYSLKINSLQPEDFGSFYCQHHYGTPYTFGGGTKLEIKR
notes: also called chimeric antibody corresponding to m1721
The molecule B7 gave an IC50 in assay [1] of 214 pM.

B8: ch1722 (antibody, human IgG4 S228P, kappa, V domains shown)
VH: QVQLQQPGAELVKPGTSVKLSCKASGNTFIDYWMHWVKQRPGQGLEWIGMLHPNSGTTSFNEKFKIKTTLTIDKSSSTAYMQLSSLTSEDSAIYYCASDYSGPFAYWGQGTLVTVSA
VL: QIVLTQSPGIMSAFPGEKVTMTCSASSSVNYIHWYQQKSGTSPKRWIFDTSKLASGVPARFSGSGSGTSYSLTISSMEAEDAATYYCQQWRSNPLTFGAGTKLELKR
notes: also called chi722; chimeric antibody corresponding to m1722
In turn, B8 yielded an IC50 in assay [1] of 159 pM.
